In the supplement of paper PMC10065799, “High-throughput profiling of sequence recognition by tyrosine kinases and SH2 domains using bacterial peptide display” (eLife, 2023):

How the values were obtained:
EPHB1 = EPHB1 (UniProt P54762); assay: phosphorylation enrichment, bacterial display (enrichment ratio); higher = better substrate or ligand; peptides without Tyr show the background
c-Abl (mouse) = assay: as above
Jak2 = Jak2 (UniProt O60674); assay: as above
FGFR3 = FGFR3 (UniProt P22607); assay: as above
FGFR3, sequence (P22607 whole entry, looked up): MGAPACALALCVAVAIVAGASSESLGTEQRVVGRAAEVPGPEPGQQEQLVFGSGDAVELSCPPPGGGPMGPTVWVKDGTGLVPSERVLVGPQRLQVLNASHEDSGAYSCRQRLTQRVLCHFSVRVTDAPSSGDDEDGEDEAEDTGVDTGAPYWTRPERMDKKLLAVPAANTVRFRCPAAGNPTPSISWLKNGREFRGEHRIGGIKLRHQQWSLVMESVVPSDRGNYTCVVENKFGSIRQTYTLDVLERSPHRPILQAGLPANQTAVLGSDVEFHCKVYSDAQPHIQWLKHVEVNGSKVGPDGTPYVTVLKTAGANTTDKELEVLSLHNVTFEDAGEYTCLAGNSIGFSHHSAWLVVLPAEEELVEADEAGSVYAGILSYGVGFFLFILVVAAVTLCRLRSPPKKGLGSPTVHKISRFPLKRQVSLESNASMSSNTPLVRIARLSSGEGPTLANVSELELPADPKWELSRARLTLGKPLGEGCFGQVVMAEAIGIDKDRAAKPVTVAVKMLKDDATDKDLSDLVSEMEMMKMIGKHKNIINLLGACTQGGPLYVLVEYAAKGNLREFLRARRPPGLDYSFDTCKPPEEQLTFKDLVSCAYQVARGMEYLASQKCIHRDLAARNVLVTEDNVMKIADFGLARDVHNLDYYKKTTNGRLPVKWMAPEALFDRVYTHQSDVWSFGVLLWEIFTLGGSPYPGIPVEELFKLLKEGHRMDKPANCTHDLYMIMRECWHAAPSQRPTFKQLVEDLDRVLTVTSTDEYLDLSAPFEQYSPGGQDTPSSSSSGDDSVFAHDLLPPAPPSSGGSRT

MERTK = MERTK (UniProt Q12866); assay: as above
MERTK, sequence (Q12866 whole entry, looked up): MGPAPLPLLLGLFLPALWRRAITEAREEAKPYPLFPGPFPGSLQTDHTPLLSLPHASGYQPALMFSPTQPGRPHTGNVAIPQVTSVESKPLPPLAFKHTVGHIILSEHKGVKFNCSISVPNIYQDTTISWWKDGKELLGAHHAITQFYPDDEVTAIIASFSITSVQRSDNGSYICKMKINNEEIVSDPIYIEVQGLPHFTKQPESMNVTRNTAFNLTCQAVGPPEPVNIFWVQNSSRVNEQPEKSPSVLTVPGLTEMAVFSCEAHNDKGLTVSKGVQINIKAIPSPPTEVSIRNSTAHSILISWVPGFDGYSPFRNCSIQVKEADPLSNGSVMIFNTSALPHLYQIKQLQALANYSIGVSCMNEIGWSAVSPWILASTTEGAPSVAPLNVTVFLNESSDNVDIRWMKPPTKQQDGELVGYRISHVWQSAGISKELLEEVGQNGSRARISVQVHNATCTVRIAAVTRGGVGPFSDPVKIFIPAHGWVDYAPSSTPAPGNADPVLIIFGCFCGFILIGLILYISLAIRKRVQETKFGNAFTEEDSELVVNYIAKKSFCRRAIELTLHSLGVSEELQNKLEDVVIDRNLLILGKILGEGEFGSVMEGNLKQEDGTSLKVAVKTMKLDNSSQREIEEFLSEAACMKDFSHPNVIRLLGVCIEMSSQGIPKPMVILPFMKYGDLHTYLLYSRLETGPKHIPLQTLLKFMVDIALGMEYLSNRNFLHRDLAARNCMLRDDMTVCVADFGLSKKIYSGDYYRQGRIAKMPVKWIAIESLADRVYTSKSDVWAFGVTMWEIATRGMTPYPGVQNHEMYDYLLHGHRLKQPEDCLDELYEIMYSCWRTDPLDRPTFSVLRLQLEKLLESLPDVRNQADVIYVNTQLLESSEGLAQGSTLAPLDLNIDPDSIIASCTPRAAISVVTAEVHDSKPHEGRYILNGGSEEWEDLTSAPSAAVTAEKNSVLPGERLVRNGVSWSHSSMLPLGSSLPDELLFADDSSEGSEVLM

FGFR1 = FGFR1 (UniProt P11362); assay: as above
Hck = Hck (UniProt P08631); assay: as above
AncSZ = assay: as above
Fyn = Fyn (UniProt P06241); assay: as above
EPHB2 = EPHB2 (UniProt P29323); assay: as above
EPHB2, sequence (P29323 whole entry, looked up): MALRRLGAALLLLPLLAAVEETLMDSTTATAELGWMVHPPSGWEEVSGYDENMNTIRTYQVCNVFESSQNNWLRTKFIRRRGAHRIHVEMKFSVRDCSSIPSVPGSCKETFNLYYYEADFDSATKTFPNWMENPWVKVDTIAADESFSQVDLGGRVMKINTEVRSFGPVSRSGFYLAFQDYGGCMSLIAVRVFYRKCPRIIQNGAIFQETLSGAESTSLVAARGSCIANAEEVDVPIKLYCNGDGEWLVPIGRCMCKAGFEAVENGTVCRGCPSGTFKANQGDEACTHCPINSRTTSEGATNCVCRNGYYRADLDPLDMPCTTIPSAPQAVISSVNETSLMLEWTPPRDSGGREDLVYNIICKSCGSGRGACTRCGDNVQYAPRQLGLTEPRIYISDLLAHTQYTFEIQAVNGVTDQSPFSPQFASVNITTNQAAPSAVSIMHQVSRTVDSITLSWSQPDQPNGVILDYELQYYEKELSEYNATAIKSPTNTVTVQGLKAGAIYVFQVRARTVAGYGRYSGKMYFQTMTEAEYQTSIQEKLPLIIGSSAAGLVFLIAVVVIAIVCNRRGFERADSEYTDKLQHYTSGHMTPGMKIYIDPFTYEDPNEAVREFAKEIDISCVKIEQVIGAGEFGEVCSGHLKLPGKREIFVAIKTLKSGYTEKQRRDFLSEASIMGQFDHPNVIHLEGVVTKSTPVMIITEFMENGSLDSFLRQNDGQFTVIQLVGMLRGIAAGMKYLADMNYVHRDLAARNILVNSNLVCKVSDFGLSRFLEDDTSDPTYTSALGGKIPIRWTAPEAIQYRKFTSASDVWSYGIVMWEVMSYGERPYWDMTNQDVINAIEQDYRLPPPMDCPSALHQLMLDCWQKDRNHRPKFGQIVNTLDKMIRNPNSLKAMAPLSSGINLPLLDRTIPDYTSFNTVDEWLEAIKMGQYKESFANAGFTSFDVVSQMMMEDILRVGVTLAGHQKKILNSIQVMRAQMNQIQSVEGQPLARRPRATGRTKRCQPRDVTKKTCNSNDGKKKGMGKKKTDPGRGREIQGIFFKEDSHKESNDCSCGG

Fes = Fes (UniProt P07332); assay: as above
Fes, sequence (P07332 whole entry, looked up): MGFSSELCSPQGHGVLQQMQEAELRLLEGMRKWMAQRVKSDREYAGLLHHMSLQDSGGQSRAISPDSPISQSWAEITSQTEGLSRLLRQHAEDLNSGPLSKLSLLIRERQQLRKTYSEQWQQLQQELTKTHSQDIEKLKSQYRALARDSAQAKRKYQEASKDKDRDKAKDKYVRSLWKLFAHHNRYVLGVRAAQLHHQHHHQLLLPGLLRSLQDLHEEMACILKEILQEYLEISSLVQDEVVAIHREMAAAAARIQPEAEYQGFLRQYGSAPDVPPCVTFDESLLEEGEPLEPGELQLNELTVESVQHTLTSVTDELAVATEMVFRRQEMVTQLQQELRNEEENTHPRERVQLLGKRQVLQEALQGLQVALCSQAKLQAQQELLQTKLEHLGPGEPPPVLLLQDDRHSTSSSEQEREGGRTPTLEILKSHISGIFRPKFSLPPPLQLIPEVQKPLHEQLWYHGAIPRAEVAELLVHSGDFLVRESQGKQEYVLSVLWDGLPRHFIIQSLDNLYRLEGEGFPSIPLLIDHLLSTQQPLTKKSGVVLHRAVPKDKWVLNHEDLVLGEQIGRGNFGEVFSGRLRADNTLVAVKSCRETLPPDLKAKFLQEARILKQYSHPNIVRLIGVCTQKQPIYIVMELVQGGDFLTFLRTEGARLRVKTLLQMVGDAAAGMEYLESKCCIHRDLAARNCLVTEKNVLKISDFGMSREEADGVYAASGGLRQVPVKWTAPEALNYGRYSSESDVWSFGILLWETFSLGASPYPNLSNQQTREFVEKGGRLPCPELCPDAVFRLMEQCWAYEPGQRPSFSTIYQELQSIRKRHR

c-Src = assay: as above
Fer (mouse) = assay: as above
SHP2-C SH2 = assay: SH2 binding enrichment of the phosphorylated peptide, bacterial display (enrichment ratio); higher = better substrate or ligand; peptides without Tyr show the background
c-Src SH2 = assay: as above
Grb2 SH2 = Grb2 SH2 (UniProt P62993); assay: as above
Grb2 SH2, sequence (P62993 whole entry, looked up, the tested form may be a part): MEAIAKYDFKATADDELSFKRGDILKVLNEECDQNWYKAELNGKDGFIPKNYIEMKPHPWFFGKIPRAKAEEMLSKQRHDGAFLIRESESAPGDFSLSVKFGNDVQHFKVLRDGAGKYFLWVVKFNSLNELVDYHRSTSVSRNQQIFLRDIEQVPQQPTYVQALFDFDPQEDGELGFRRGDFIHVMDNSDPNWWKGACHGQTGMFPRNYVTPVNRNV
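Wherever SH2 binding enrichment of the phosphorylated peptide, bacterial display is given: peptide library displayed on the E. coli surface as eCPX fusions, selected cells deep-sequenced, score is each peptide's frequency after selection divided by its frequency in the input.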
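Wherever phosphorylation enrichment, bacterial display is given: 11-residue human phosphosite peptides and single-mutation variants displayed on the E. coli surface, counted by deep sequencing, each peptide's frequency after selection divided by its frequency in the unselected input library; frequency after pTyr selection over input frequency; kinase dosed for 20-30% of maximal phosphorylation in three min.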

Jak2, sequence (O60674 whole entry, looked up): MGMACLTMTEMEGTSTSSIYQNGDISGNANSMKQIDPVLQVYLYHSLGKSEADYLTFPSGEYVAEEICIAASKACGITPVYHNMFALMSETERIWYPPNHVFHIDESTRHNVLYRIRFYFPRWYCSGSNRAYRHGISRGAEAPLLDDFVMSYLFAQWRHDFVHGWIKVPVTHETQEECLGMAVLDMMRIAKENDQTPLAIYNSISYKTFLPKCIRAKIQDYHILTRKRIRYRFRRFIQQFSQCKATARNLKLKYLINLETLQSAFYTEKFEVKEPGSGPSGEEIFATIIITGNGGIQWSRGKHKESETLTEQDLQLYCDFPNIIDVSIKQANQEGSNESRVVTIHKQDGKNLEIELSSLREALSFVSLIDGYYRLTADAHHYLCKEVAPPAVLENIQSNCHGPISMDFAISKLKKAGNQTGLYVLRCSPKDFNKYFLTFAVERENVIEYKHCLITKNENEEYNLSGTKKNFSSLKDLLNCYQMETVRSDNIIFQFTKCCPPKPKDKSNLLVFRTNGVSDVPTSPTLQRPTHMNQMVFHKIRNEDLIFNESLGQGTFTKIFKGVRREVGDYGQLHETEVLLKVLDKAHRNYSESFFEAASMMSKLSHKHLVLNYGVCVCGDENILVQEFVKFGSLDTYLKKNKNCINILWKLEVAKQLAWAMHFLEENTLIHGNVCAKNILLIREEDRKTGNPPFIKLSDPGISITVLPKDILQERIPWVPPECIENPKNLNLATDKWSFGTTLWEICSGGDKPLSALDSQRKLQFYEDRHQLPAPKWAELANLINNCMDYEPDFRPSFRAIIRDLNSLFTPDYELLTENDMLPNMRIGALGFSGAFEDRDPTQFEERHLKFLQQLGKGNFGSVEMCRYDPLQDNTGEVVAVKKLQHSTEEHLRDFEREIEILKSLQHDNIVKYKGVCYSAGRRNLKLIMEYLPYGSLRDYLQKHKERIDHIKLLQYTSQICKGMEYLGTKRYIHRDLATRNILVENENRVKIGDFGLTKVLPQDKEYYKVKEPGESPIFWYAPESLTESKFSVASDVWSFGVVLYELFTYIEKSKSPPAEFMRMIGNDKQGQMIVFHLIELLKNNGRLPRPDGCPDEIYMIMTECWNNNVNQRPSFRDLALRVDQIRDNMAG

Row | Sequence | phosphorylation enrichment (EPHB1) | phosphorylation enrichment (c-Abl (mouse)) | phosphorylation enrichment (Jak2) | phosphorylation enrichment (FGFR3) | phosphorylation enrichment (MERTK) | phosphorylation enrichment (FGFR1) | phosphorylation enrichment (Hck) | phosphorylation enrichment (AncSZ) | phosphorylation enrichment (Fyn) | phosphorylation enrichment (EPHB2) | phosphorylation enrichment (Fes) | phosphorylation enrichment (c-Src) | phosphorylation enrichment (Fer (mouse)) | SH2 binding enrichment (SHP2-C SH2) | SH2 binding enrichment (c-Src SH2) | SH2 binding enrichment (Grb2 SH2)
1 | AEYGLYGAMVR [VSX2_Y222] | 0.824 | 0.908 | 0.675 | 0.604 | 1.97 | 0.456 | 6.91 | 0.99 | 7.64 | 2.5 | 0.786 | 5.06 | 2.03 | 0.636 | 0.508 | 0.806
2 | VQDPAYLRDID [OPRK1_Y369] | 0.45 | 0.905 | 1.24 | 0.708 | 0.468 | 0.533 | 0.567 | 1.16 | 0.425 | 0.657 | 1.13 | 0.425 | 0.465 | 1.04 | 0.564 | 1.14
3 | KFDLMYAKHAF [TUBA1A_Y399_R402H] | 0.521 | 0.573 | 0.805 | 0.564 | 0.408 | 0.397 | 0.438 | 0.794 | 0.435 | 0.543 | 0.987 | 0.44 | 1.07 | 0.772 | 0.527 | 0.847
4 | RGVVMYTSKDR [ZG16B_Y136_M133V] | 0.601 | 1.4 | 1.02 | 0.568 | 0.552 | 0.433 | 0.677 | 0.694 | 0.665 | 0.724 | 0.865 | 0.622 | 0.41 | 0.981 | 0.596 | 0.91
5 | LQRVQCDLQKA [DSP_Y1512_Y1512C] | 1.12 | 0.987 | 1.43 | 1.31 | 0.762 | 1.06 | 0.812 | 1.14 | 0.811 | 0.827 | 1.16 | 0.709 | 0.809 | 0.558 | 0.543 | 0.696
6 | LLLLFCVVRFC [MPZ_Y177_Y177C_YF] | 0.803 | 0.933 | 0.607 | 1.56 | 0.718 | 0.973 | 0.75 | 1.01 | 0.712 | 0.56 | 1.12 | 0.719 | 1.16 | 1.77 | 0.857 | 1.47
7 | SRDDFYETIAM [NPY1R_Y347_D346Y_YF] | 1.02 | 0.773 | 1.23 | 0.871 | 0.826 | 0.5 | 2.04 | 1.3 | 1.44 | 0.68 | 1.21 | 1.06 | 7.71 | 0.73 | 0.916 | 0.947
8 | HEDPMYDIIRD [RP9_Y142] | 3.51 | 1.27 | 1.29 | 0.687 | 5.24 | 0.718 | 5.56 | 1.94 | 5.63 | 3.85 | 1.48 | 5.36 | 4.2 | 0.664 | 1.92 | 0.63
9 | VYYYSYLLKNH [PTEN_Y180] | 1.72 | 2.84 | 2.14 | 3.68 | 3.89 | 4.67 | 1.74 | 1.48 | 1.12 | 1.07 | 1.33 | 1.63 | 0.82 | 0.941 | 0.847 | 0.965
10 | NTQRPYFKGGG [TYROBP_Y111_YF] | 0.429 | 0.574 | 0.904 | 0.467 | 0.454 | 0.364 | 0.326 | 0.533 | 0.428 | 0.372 | 0.613 | 0.461 | 0.437 | 1.02 | 0.619 | 1.04
11 | SIKDKHVTALY [KCNH2_Y611_Y611H] | 0.387 | 0.529 | 0.43 | 0.405 | 0.345 | 0.408 | 0.397 | 0.587 | 0.409 | 0.405 | 0.61 | 0.44 | 0.388 | 0.572 | 0.497 | 0.899
12 | SSVKLYRVYCD [FGB_Y266_P265L] | 0.618 | 0.718 | 0.955 | 0.728 | 0.459 | 0.459 | 0.603 | 1.06 | 0.479 | 0.634 | 1.22 | 0.525 | 0.531 | 0.818 | 0.606 | 0.893
13 | AIGYEYSEINI [SIGLEC12_Y588] | 0.797 | 0.9 | 0.987 | 3.56 | 0.492 | 5.67 | 2.3 | 1.44 | 1.11 | 0.562 | 0.999 | 2.03 | 6.47 | 1.58 | 8.56 | 0.656
14 | EAVSIYQFYGQ [CBLC_Y402_H405Y] | 10.1 | 4.8 | 1.22 | 1.77 | 9.05 | 1.6 | 7.5 | 2.11 | 9.16 | 11.6 | 1.38 | 7.02 | 9.22 | 0.857 | 0.574 | 0.821
15 | DWRQEYVLNEP [TGM1_Y267_S272P] | 0.407 | 0.669 | 0.988 | 1.24 | 0.495 | 1.7 | 0.397 | 1.24 | 0.672 | 0.426 | 1.13 | 1.89 | 0.55 | 0.75 | 0.523 | 0.877
16 | KFDLMYAKCAF [TUBA1A_Y399_R402C] | 0.72 | 1.06 | 1.25 | 0.841 | 0.624 | 0.491 | 0.677 | 1.27 | 0.567 | 0.723 | 1.35 | 0.598 | 0.68 | 0.473 | 0.557 | 0.687
17 | LHRAHYDLHHT [AHSG_Y314_R317H] | 0.69 | 0.781 | 0.646 | 0.857 | 0.496 | 0.511 | 0.553 | 0.836 | 0.637 | 0.674 | 1.01 | 0.505 | 1.36 | 1.92 | 1.86 | 1.95
18 | ALLTKYSHSSM [DSCC1_Y374] | 0.442 | 0.727 | 0.542 | 0.587 | 0.436 | 0.45 | 0.485 | 0.651 | 0.578 | 0.643 | 0.737 | 0.528 | 0.56 | 0.488 | 0.406 | 0.76
19 | GRTGHYLCNAC [GATA1_Y223_D218G] | 0.4 | 0.375 | 0.446 | 0.433 | 0.481 | 0.436 | 0.392 | 0.445 | 0.332 | 0.287 | 0.631 | 0.296 | 0.32 | 0.872 | 0.917 | 1.25
20 | PTATSYNPNLA [GABRA1_Y375_T376N] | 0.808 | 1.57 | 1.55 | 0.878 | 1.06 | 0.864 | 0.621 | 1.39 | 0.748 | 0.607 | 1.34 | 1.43 | 0.824 | 0.82 | 0.617 | 0.847
21 | RLASVYTKRCS [CPT2_Y508_P504L] | 0.706 | 0.643 | 0.739 | 0.695 | 0.316 | 0.4 | 0.578 | 0.917 | 0.528 | 0.501 | 0.889 | 0.557 | 0.414 | 0.864 | 0.611 | 0.868
